Data taken from publication PMC6927192, “Comparative phosphorylation map of Dishevelled 3 links phospho-signatures to biological outputs” (Cell Communication and Signaling : CCS, 2019).
Square brackets hold non-standard residues; d marks the D form. Ends that are not written are not given here. pS = N[C@@H](COP(=O)(O)O)C(=O)O

Molecular target: T1, Human DVL2 PDZ domain (aa 265–361) (human, UniProt O14641 265-361)
T1 construct: Dishevelled 2 (DVL2), human, PDZ domain, residues 265-361; 15N-labelled for the NMR titration; The pET construct has a TEV cleavage site after the tags; also called wt PDZ; wildtype PDZ; source: E. coli BL21-DE3(RIL), purified
T1 sequence (looked up): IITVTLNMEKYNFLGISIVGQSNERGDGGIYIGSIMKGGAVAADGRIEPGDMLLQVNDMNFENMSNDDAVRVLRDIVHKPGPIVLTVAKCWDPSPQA
Test: NMR titration; series of 1H-15N HSQC spectra, 100 μM 15N-labeled PDZ (wild type or phosphomimicking mutant) with increasing amounts of DVL_C peptide (stock 800 μM); proteins stored in 20 mM Hepes (pH 6.8), 50 mM KCl; 700 MHz; qualitative analysis
Settings: both partners purified

B1: DVL3_C peptide 698–716 with phosphorylated S700 (peptide, UniProt Q92997 698-716, looked up)
peptide: RQ[pS]FRMAMGNPSEFFVDVM
notes: Dishevelled 3 (DVL3), human, C-terminal residues 698-716; also called DVL3 C-terminal peptide; source: bought: KareBay Biochem, Inc. (New Jersey, USA)
Q: Does B1 bind?
A: binds
